Experimental data as given in US20200199241A1 (Chugai, published 2020).

Tests used:
[1] = target: T1, FcγRIa (human, UniProt P12314 16-292, limits assumed); test: SPR (Biacore), FcγR over captured antibody
T1 construct: also called FcgRIa; CD64
T1 sequence (P12314 16-292 limits assumed): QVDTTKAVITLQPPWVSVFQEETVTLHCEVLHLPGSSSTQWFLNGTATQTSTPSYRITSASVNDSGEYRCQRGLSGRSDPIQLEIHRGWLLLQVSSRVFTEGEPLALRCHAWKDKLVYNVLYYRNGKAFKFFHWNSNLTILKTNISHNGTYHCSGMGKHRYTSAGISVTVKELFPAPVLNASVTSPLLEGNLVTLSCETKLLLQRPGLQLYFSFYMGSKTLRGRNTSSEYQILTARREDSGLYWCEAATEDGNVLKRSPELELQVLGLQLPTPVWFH

[2] = target: T2, FcγRIIIa type V (human, UniProt P08637 17-208, limits assumed); test: SPR (Biacore), FcγR over captured antibody
T2 construct: also called FcγRIIIaV; FcgRIIIaV

[3] = target: T3, FcγRIIa type H (human, UniProt P12318 36-217); test: SPR (Biacore), FcγR over captured antibody
T3 construct: also called FcγRIIaH; FcγRIIH
T3 sequence: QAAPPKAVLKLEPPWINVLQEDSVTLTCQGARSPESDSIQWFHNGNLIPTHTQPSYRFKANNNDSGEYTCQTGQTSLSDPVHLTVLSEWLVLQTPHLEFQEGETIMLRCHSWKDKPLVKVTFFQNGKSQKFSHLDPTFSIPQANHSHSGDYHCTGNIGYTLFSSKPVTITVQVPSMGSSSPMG

[4] = target: T4, FcγRIIb (human, UniProt P31994 43-217, limits assumed); test: SPR (Biacore), FcγR over captured antibody
T4 construct: also called FcgRIIb; FcγIIB
T4 sequence: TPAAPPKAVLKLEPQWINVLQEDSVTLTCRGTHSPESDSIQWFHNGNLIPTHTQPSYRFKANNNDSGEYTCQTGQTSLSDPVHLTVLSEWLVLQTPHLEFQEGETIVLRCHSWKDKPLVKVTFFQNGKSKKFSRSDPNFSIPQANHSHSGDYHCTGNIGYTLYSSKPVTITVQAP

[5] = target: T5, FcγRIIa type R (human, UniProt P12318 36-217); test: SPR (Biacore), method of Example 14
T5 construct: also called FcγRIIaR; FcγRIIa(R)
T5 chain: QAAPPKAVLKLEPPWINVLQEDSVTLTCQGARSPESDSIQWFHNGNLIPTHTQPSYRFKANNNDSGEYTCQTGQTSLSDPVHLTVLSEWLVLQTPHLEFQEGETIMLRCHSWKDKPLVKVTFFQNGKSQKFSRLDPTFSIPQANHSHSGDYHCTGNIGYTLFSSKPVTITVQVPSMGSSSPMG

[6] = target: T6, FcγRIa (human, UniProt P12314 16-292, limits assumed); test: SPR (Biacore), method of Example 14
T6 construct: also called CD64
T6 sequence (P12314 16-292 limits assumed): as the sequence (P12314 16-292 limits assumed) above

[7] = target: T7, FcγRIIa type H (human, UniProt P12318 36-217); test: SPR (Biacore), method of Example 14
T7 construct: also called FcγRIIaH; FcγRIIa(H)
T7 sequence: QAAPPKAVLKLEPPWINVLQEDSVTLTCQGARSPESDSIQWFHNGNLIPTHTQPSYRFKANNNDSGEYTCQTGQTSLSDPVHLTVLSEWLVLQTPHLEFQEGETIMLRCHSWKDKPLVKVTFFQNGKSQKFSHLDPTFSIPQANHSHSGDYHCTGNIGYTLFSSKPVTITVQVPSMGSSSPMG

[8] = target: T8, FcγRIIb (human, UniProt P31994 43-217, limits assumed); test: SPR (Biacore), method of Example 14
T8 construct: also called FcγIIB; CD32
T8 sequence: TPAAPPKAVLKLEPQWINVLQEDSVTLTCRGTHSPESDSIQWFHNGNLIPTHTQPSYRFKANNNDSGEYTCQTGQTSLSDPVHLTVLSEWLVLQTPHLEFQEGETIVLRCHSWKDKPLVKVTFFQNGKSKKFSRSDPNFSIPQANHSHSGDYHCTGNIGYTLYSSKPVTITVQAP

[9] = target: T8, FcγRIIb; test: ratio of SPR KD values, parent IL6R-B3/IL6R-L

T2 sequence (P08637 other isoform, or with tags, fused parts or gaps limits assumed): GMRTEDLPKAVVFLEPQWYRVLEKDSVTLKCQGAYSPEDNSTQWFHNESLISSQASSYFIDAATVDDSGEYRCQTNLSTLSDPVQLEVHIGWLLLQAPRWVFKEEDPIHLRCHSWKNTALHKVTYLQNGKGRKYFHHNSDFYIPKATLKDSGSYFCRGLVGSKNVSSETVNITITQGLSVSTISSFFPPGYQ

B1: IL6R-2B002/IL6R-L (antibody, human IgG1)
heavy: QVQLQESGPGLVKPSETLSLTCAVSGHSISHDHAWSWVRQPPGEGLEWIGFISYSGITNYNPSLQGRVTISRDNSKNTLYLQMNSLRAEDTAVYYCARSLARTTAMDYWGEGTLVTVSSASTKGPSVFPLAPSSKSTSGGTAALGCLVKDYFPEPVTVSWNSGALTSGVHTFPAVLQSSGLYSLSSVVTVPSSSLGTQTYICNVNHKPSNTKVDKKVEPKSCDKTHTCPPCPAPDLLGGDSVFLFPPKPKDTLMISRTPEVTCVVVDVSHEDPEVKFNWYVDGVEVHNAKTKPREEQYNSTYRVVSVLTVLHQDWLNGKEYKCKVSNKALPAPIEKTISKAKGQPREPQVYTLPPSRDELTKNQVSLTCLVKGFYPSDIAVEWESNGQPENNYKTTPPVLDSDGSFFLYSKLTVDKSRWQQGNVFSCSVMHEALHNHYTQESLSLSP
light: DIQMTQSPSSLSASVGDRVTITCRASQDISSYLNWYQQKPGKAPKLLIYYTSRLHSGVPSRFSGSGSGTDFTFTISSLQPEDIATYYCQQGNTLPYTFGQGTKVEIK
notes: IgG1; Fc variant of IL6R-B3; copies: 2 + 2
With B1 the Kd [1] was 6.4 nM, the Kd [2] was 53000 nM and the Kd [3] was 86000 nM. The Kd [4] was 930 nM.

B2: IL6R-BP202/IL6R-L (antibody, human IgG1)
heavy: QVQLQESGPGLVKPSETLSLTCAVSGHSISHDHAWSWVRQPPGEGLEWIGFISYSGITNYNPSLQGRVTISRDNSKNTLYLQMNSLRAEDTAVYYCARSLARTTAMDYWGEGTLVTVSSASTKGPSVFPLAPSSKSTSGGTAALGCLVKDYFPEPVTVSWNSGALTSGVHTFPAVLQSSGLYSLSSVVTVPSSSLGTQTYICNVNHKPSNTKVDKKVEPKSCDKTHTCPPCPAPELLGDDSVFLFPPKPKDTLMISRTPEVTCVVVDVSHEDGEVKFNWYVDGVEVHNAKTKPREEQYNSTYRVVSVLTVLHQDWLNGKEYKCKVSNAALPRPIEKTISKAKGQPREPQVYTLPPSRDELTKNQVSLTCLVKGFYPSDIAVEWESNGQPENNYKTTPPVLDSDGSFFLYSKLTVDKSRWQQGNVFSCSVMHEALHNHYTQESLSLSP
light: DIQMTQSPSSLSASVGDRVTITCRASQDISSYLNWYQQKPGKAPKLLIYYTSRLHSGVPSRFSGSGSGTDFTFTISSLQPEDIATYYCQQGNTLPYTFGQGTKVEIK
notes: Anti-IL-6R human IgG1 variant; copies: 2 + 2
In the case of B2, the Kd [5] is reported as 1200 nM, the Kd [6] is reported as 95 nM and the Kd [7] is reported as 92000 nM. The Kd [8] was 64 nM and the “KD(IIb) of the parent polypeptide/KD(IIb) of altered polypeptide” value (shortened to “KD(IIb)”) [9] was 48.4 fold.

B3: IL6R-BP204/IL6R-L (antibody, human IgG1)
heavy: QVQLQESGPGLVKPSETLSLTCAVSGHSISHDHAWSWVRQPPGEGLEWIGFISYSGITNYNPSLQGRVTISRDNSKNTLYLQMNSLRAEDTAVYYCARSLARTTAMDYWGEGTLVTVSSASTKGPSVFPLAPSSKSTSGGTAALGCLVKDYFPEPVTVSWNSGALTSGVHTFPAVLQSSGLYSLSSVVTVPSSSLGTQTYICNVNHKPSNTKVDKKVEPKSCDKTHTCPPCPAPDLLGGDSVFLFPPKPKDTLMISRTPEVTCVVVDVSHEDGEVKFNWYVDGVEVHNAKTKPREEQYNSTYRVVSVLTVLHQDWLNGKEYKCKVSNAALPRPIEKTISKAKGQPREPQVYTLPPSRDELTKNQVSLTCLVKGFYPSDIAVEWESNGQPENNYKTTPPVLDSDGSFFLYSKLTVDKSRWQQGNVFSCSVMHEALHNHYTQESLSLSP
light: DIQMTQSPSSLSASVGDRVTITCRASQDISSYLNWYQQKPGKAPKLLIYYTSRLHSGVPSRFSGSGSGTDFTFTISSLQPEDIATYYCQQGNTLPYTFGQGTKVEIK
notes: as for B2
B3 was tested, and the Kd [5] was 4500 nM, the Kd [6] was 7.6 nM and the Kd [7] was 21000 nM. For the same binder, the Kd [8] was 250 nM and the “KD(IIb)” value [9] was 12.2 fold.

B4: IL6R-BP201/IL6R-L (antibody, human IgG1)
heavy: QVQLQESGPGLVKPSETLSLTCAVSGHSISHDHAWSWVRQPPGEGLEWIGFISYSGITNYNPSLQGRVTISRDNSKNTLYLQMNSLRAEDTAVYYCARSLARTTAMDYWGEGTLVTVSSASTKGPSVFPLAPSSKSTSGGTAALGCLVKDYFPEPVTVSWNSGALTSGVHTFPAVLQSSGLYSLSSVVTVPSSSLGTQTYICNVNHKPSNTKVDKKVEPKSCDKTHTCPPCPAPDLLGDDSVFLFPPKPKDTLMISRTPEVTCVVVDVSHEDGEVKFNWYVDGVEVHNAKTKPREEQYNSTYRVVSVLTVLHQDWLNGKEYKCKVSNKALPRPIEKTISKAKGQPREPQVYTLPPSRDELTKNQVSLTCLVKGFYPSDIAVEWESNGQPENNYKTTPPVLDSDGSFFLYSKLTVDKSRWQQGNVFSCSVMHEALHNHYTQESLSLSP
light: DIQMTQSPSSLSASVGDRVTITCRASQDISSYLNWYQQKPGKAPKLLIYYTSRLHSGVPSRFSGSGSGTDFTFTISSLQPEDIATYYCQQGNTLPYTFGQGTKVEIK
notes: as for B2
B4 gave a Kd [5] of 840 nM, a Kd [6] of 51 nM and a Kd [7] of 69000 nM. For the same binder, the Kd [8] was 40 nM and the “KD(IIb)” value [9] was 77.1 fold.

B5: IL6R-BP136/IL6R-L (antibody, human IgG1)
heavy: QVQLQESGPGLVKPSETLSLTCAVSGHSISHDHAWSWVRQPPGEGLEWIGFISYSGITNYNPSLQGRVTISRDNSKNTLYLQMNSLRAEDTAVYYCARSLARTTAMDYWGEGTLVTVSSASTKGPSVFPLAPSSKSTSGGTAALGCLVKDYFPEPVTVSWNSGALTSGVHTFPAVLQSSGLYSLSSVVTVPSSSLGTQTYICNVNHKPSNTKVDKKVEPKSCDKTHTCPPCPAPELLGGDSVFLFPPKPKDTLMISRTPEVTCVVVDVSHEDPEVKFNWYVDGVEVHNAKTKPREEQYNSTYRVVSVLTVLHQDWLNGKEYKCKVSNAALPAPIEKTISKAKGQPREPQVYTLPPSRDELTKNQVSLTCLVKGFYPSDIAVEWESNGQPENNYKTTPPVLDSDGSFFLYSKLTVDKSRWQQGNVFSCSVMHEALHNHYTQESLSLSP
light: DIQMTQSPSSLSASVGDRVTITCRASQDISSYLNWYQQKPGKAPKLLIYYTSRLHSGVPSRFSGSGSGTDFTFTISSLQPEDIATYYCQQGNTLPYTFGQGTKVEIK
notes: as for B1
Binder B5 has a Kd [1] of 6.6 nM, a Kd [2] of 69000 nM and a Kd [3] of 38000 nM. The Kd [4] was 800 nM.

B6: IL6R-BP142/IL6R-L (antibody, human IgG1)
heavy: QVQLQESGPGLVKPSETLSLTCAVSGHSISHDHAWSWVRQPPGEGLEWIGFISYSGITNYNPSLQGRVTISRDNSKNTLYLQMNSLRAEDTAVYYCARSLARTTAMDYWGEGTLVTVSSASTKGPSVFPLAPSSKSTSGGTAALGCLVKDYFPEPVTVSWNSGALTSGVHTFPAVLQSSGLYSLSSVVTVPSSSLGTQTYICNVNHKPSNTKVDKKVEPKSCDKTHTCPPCPAPELLGGDSVFLFPPKPKDTLMISRTPEVTCVVVDVSHEDPEVKFNWYVDGVEVHNAKTKPREEQYNSTYRVVSVLTVLHQDWLNGKEYKCKVSNNALPAPIEKTISKAKGQPREPQVYTLPPSRDELTKNQVSLTCLVKGFYPSDIAVEWESNGQPENNYKTTPPVLDSDGSFFLYSKLTVDKSRWQQGNVFSCSVMHEALHNHYTQESLSLSP
light: DIQMTQSPSSLSASVGDRVTITCRASQDISSYLNWYQQKPGKAPKLLIYYTSRLHSGVPSRFSGSGSGTDFTFTISSLQPEDIATYYCQQGNTLPYTFGQGTKVEIK
notes: as for B1
B6 gave a Kd [1] of 5.3 nM, a Kd [2] of 110000 nM and a Kd [3] of 93000 nM. For the same binder, the Kd [4] was 1200 nM.

B7: IL6R-BP192/IL6R-L (antibody, human IgG1)
heavy: QVQLQESGPGLVKPSETLSLTCAVSGHSISHDHAWSWVRQPPGEGLEWIGFISYSGITNYNPSLQGRVTISRDNSKNTLYLQMNSLRAEDTAVYYCARSLARTTAMDYWGEGTLVTVSSASTKGPSVFPLAPSSKSTSGGTAALGCLVKDYFPEPVTVSWNSGALTSGVHTFPAVLQSSGLYSLSSVVTVPSSSLGTQTYICNVNHKPSNTKVDKKVEPKSCDKTHTCPPCPAPDLLGGDSVFLFPPKPKDTLMISRTPEVTCVVVDVSDEDGEVKFNWYVDGVEVHNAKTKPREEQDNSTYRVVSVLTVLHQDWLNGKEYKCKVSNKALPKPIEKTISKAKGQPREPQVYTLPPSRDELTKNQVSLTCLVKGFYPSDIAVEWESNGQPENNYKTTPPVLDSDGSFFLYSKLTVDKSRWQQGNVFSCSVMHEALHNHYTQESLSLSP
light: DIQMTQSPSSLSASVGDRVTITCRASQDISSYLNWYQQKPGKAPKLLIYYTSRLHSGVPSRFSGSGSGTDFTFTISSLQPEDIATYYCQQGNTLPYTFGQGTKVEIK
notes: as for B2
Work on B7 yielded a Kd [5] of 2600 nM, a Kd [6] of 6.6 nM and a Kd [7] of 32000 nM. The Kd [8] was 110 nM and the “KD(IIb)” value [9] was 27.3 fold.
